# Assay results: the DeepSol protein solubility set
# Test: soluble on expression in E. coli; label from the status in PepcDB or PDB records
row,Sequence,soluble on expression in E. coli
1,MAHHHHHHMYNPALPNHYRGVVFAAYVRRRQREEAAAAQQQRQPNALASALSASSLAAPSMASVTAPLLGLSAEELHQHRIKESAALGIQRAVMMEKEALEVEHKKRKLEGSDARSRISSRLDKLKALAAKSKAVTGVSASLDAGDAILQAGGPSSPTSSQRTSSSSFDAEAAPSAPLVFQRSSLAAGGYVMAAADPSLPGMLLRTKTRSAVQGKPSSTLLLRFLHDSPVLGWKEAAIAEASTLSSAESSLCAPVLSQVQQLCRRFGFVRSMAAHVYAEDVVTAALARARSQTSAETQVPSAEAVRREQLRVWVRFDSVTEAFKAAESLAKEVSPATPAGRPVFAVAFYPTGLYDSGALELREEDLLSPSA,not soluble
2,MGSDKIHHHHHHMKYNPHKYQTYATNFILEHPIAAVFLEMGLGKSVITLTAIFDLCLDSFEIGKVLVIAPLRVARDTWPAEINKWEHLKGLEFSVAIGTKQERLAALRKPASVYLINRENVDWLVNKSGIPFDYDMVVIDELSSFKSYGAKRFKSLLKVRPRAKRIVGLTGTPSSNGLMDLWAEFRILDMGKRLGRYITHYRNSFFTPDKRNQQIVFSYKPLPGAEDAIYQLISDITISMESVDFLKMPECMINEVPVYLNDKEQSVYDRFREEMVLEFADEEIDAMNAAVLSGKLLQMANGAIYDDDKNTHIIHDRKLDALEDLIEGANGKPVLIAYWYNHDLERIKAKFNVREIKTSKDIKDWNNGDISVAVIHPASAGHGLNLQSGGSTLIWFGLTWSLELYQQTNARLWRQGQNETVVIHHIITKGTIDEDVMNALRRKEKTQSDLINAVKANLGKARDAV,not soluble
3,MSLAQLEHALQHDLQRLAHGGEPWVRPRVHPAGHVYDVVIVGAGQSGLGAAFALQRERVHNVLVIDENPPGQEGPWVTYARMQTLRTPKQITSIDLGVPTLTFRAWWEAQHGAAGWDALDKIPRGTWMDYLRWYRAALRLPVRNATQLVRIEPDAAPGIHRLHLAMGAPLMARKIILATGIQGGGQWQVPEWITQALPAQRYAHTSGPIDYAALAGKRVGILGGGASAFDNACFALDQGVARAEVFVRRAALPRVNPIRHMEQAGIIPRFAALPDADKYRMMASFFGRNQPPTNDTFQRACAHAGFALHLDAPWLGVEEHNDVVVVRTPQGEHRFDFLAIATGLVTDPRLRPELAALSGRIACWADRYQAPPGQANPVLDAHPYLGPGFELLPRTPDDAAAVDGLFAFNYSALINHGLSAAALSGLKVALPRLARAVADQLFLDDRQAMVEAYLGYDQAEFVGQWPQPTQAVALEHHHHHH,soluble
4,MGSDKIHHHHHHVDKLLYVAMSGAKQNMNSLAVRANNLANANTDGFKSDLEQARSMQAFGEGLPTRVFSMTENPSANFAAGPIKTTGRDLDIAVKGDGWIAVQAVDGGEAYTRSGSLSFDTSGLLRNDRGNPVMGDAGPIVLPLPIEKVEIAQDGTISVRPLGSTAEVIEEVGRIKLVNPGNQNLMRGEDGLFRQLSGVNAPADPNVAVESGAIEGSNVNAVDEMVSLIDLQRQFEMQVKMMKTAEEMDQASSSLMRIS,not soluble
5,MQPFDSRQADEVATLLALAEHGSFAAAGRALQRHPSVLSKRLGALERRLGIRLVERTTRQLRFTDEGERLASRFRQAVDLLDEAEHEASLGAAQLRGRLRIALPSAMGRLWLGPLLAEFALAHPQVVLETDYSERFVDIIAEGFDLAIRVGELADSRLVARRLCAHRRILGAAPDYLKRHGVPRIPADLAAHNCLGFSGLHSYPEWKLTRQDEQQPVRVRGSMVSNDNEALLCAARQGLGIFAAGEWLMSRDLEAGRLVRVLPEWKLDADAGVYLVRPSARYATAAASAFRQWVEARFAAGPPWQRQRA,not soluble
6,SNAMILSQQKYNYLAKVSDSNGVISALAFDQRGALKCLMAQYQMKEPTVAQMEELKVLVSEELTPYASSILLDPEYGLPAAQARDREAGLLLAYEKTGYDANTTSRLPDCLVDWSIKRLKEAGADAVKFLLYYDVDGDPQVNVQKQAYIERIGSECQAEDIPFFLEILTYDETISNNSSVEFAKVKVHKVNDAMKVFSAERFGIDVLKVEVPVNMVYVEGFAEGEVVYSKEEAAQAFREQEASTDLPYIYLSAGVSAELFQETLVFAHKAGAKFNGVLCGRATWAGSVQVYMEEGKEAARQWLRTSGLQNINELNKVLKTTASPWTEKVSVG,soluble
7,MIESVLLLVSGLPGSGKSTLARGMAEALAWPCLDKDDFLEALFDARGIGDAAWRRALSREADSRFLAALQAAPRAVACSWWRHPRGEGGSGTPIGGLARPGRLVLELHCRCPAELAAARFARRVRHPGHLDAQRDPGALSLQLRRAERLGPLGLGQCLILDASVQTDLSGALAWTRDALAAGALADPPRHPLEHHHHHH,not soluble
8,LDTTRESIRIGDNLGNVINDPISSREIETQNERDNDLINRYYRPDELEKVKVVDFKPIILNLDELDNDELIMALEEKPAYSRTGVLLSRIDNIRMRIAESAGRLKKDVVRSEESERPAFESERSSSPTTISFN,not soluble
9,MAHHHHHHMNPSLSDSKFEKAMSKLQLLEDSRTILHRMLQHAHFSFSNAQRQMDRTGLLLAWEAVPTAAGAVKPQYCIVREMKDGGNGGDAGVGAAAISDDNVDCAVWKLVNCGDSAGEDPAKWFAVAPSEALRECQQHFRGVVNACVKVIQAQEEAITAAATVPVT,not soluble
10,MGSDKIHHHHHHMSQLVRPTLELPAGRRKVLLHSCCAPCSGEVMEAMTASGIDYAIYFYNPNIHPVKEYEIRKNENIRFAEEHGIEFIDADYDMDNWFERVKGMENEPERGIRCTACFDMRFERTALYAHEHGFDTITSSLGISRWKDMNQINGCGERAAARYDDLVYWTYNWRKGGGSQRMIEISKRENFYQQEYCGCVYSLRDTNRHRRAQGRERIHLGVKFYGVEEKL,not soluble
11,MRYQKLEIQEANWQWKYLLKKHREGENITKHTEQSLIELKVQFLTTLQHSPAEIEQWIKAEMTAEQRKRMRQSIRAKRKRFFNAEKLTTKKKSIDLDYASWLRLSKYSKTHAMTLSETINHLIDERENQHLYSEQMAKMKASLKDLLK,not soluble
12,MDYSHQTSLVPCGQDKYISKNELLLHLKTYNLYYEGQNLQLRHREEEDEFIVEGLLNISWGLRRPIRLQMQDDNERIRPPPSSSSWHSGCNLGAQGTTLKPLTVPKVQISEVDAPPEGDQMPSSTDSRGLKPLQEDTPQLMRTRSDVGVRRRGNVRTPSDQRRIRRHRFSINGHFYNHKTSVFTPAYGSVTNVRINSTMTTPQVLKLLLNKFKIENSAEEFALYVVHTSGEKQKLKATDYPLIARILQGPCEQISKVFLMEKDQVEEVTYDVAQYIKFEMPVLKSFIQKLQEEEDREVKKLMRKYTVLRLMIRQRLEEIAETPATILEHHHHHH,soluble
13,LLSPPIALKPLDSSAKWRIIYWNPNGCDKTCLKQLNMLGRVRLSFGRKLYQVDEWLLLSNKDSLIAEELKPILKEQDIHVAALSLTEMSKLSTLYPEAKIFIANPDNYLILSYQPGCNPGDIYKDLKLLLNTTE,not soluble
14,MGSDKIHHHHHHMMAVAHKGEAQFDFYWRQQGEWVEEPNQRRGGESGVQRLNDADGKLLYAKRQVGHIYRSLLHPFGRPTVLRELDALNSFEQLGVRVPRIVFCGAQRDAEHQWRALLVSEALDGFVELDTWHAEGARERYPQVVHERMLKDLADNLARMHLGHWQHGCLYGKHVFIKVIGEGEQARVEVALLDLEKCRRRISCQRAAGNDLRQLRRHSSLNDAEWRTLLYFYKMAFGSAVKGLE,not soluble
15,MYELTEDFKLRKITKYELDGIDEREDLLVIPPSSKAGPCGNACLFCYLLQNPPEMIYKVPRHDTLNDPDLENRIRYARKHYDLWIRVTDTSGNIKFDENRIKSLYDAGLDEIQISVHTTKKDVRARLMRNRQAGKLIDLLPLVAKHFRTIADIILTPGFNVEDIGEIIEDLDSMGVHEVRLFPVGVTRYNKFGVRPLTREELSYVKGIALEKDKELAIKVVIPPIFLALLGEFTTGLEPFDIEPDFPTYIFTGELAYQEMKRLFPRVNVIMVKNEFFGGNIGSAGLLTGRDILREVEKLPEVDLGLIILPELMFYGDMTLDGWRRQELFSKILIEKGYIVETALEPTEIPRVIEKVTL,not soluble
16,MSLAKSVFYYHRCQFDVKDKYGDLKQRITELYHQHKGRYGYRRVTAALKQLDCHHNHKLIAKLMHDMKLSAKIRRQKYRSYKGQQGKIAKNYLKRQFHADKPNKRWLTDITEFKVGDDKLYLSPILDCYNNEIVSYTLSKRPTYDLVGKMLEDALAKTKACRDNKLMLHSDQGWHYQMRLFGQVLKQHGIKQSMSRKGNCLDNALMEGFFGTLKCETIYIEKPNSIEGLEKQIHEYIHYYNHERIQLKLKGLSPVKYRTQSLIEGHHHHHH,not soluble
17,MKIKACIFDMDGTLVNSIMDIAFSMNSALSNLGYSKIELSKFNALVGRGFNKFVIDTLKLLSLEHDNPNLQEKLYKEFVKEYNKNLSFQTKPYENIKPLLETMNKLNIPIGILSNKNHEELINLVKNIFGNILFFEIRGYSKNFPPKPDPENALDMILELNAQKEEIAYIGDSDVDMLTALNAGFMPIGVSWGFRSVQELKESGAKHIIHNPLELLDLIK,not soluble
18,MSDTEKYVARPAVGHLPLDDSWTPTSAEAIQDEPSPDEEEYKRQYTCRMVPNEGPLYQHYMLEAVAVADDEVKIPLEEVKEEPVELPAAVVHEVVALKPATRRESSISSDSGRGADCSTTSASALTSNTSMRRDRLVGTSNFGSQRSLWCELPEVRAAGLLEKLDDECKLRQEAYFEVITSEASYLRSLNVLITHFMASPQMLGSKSALSVLSDSDRKHLFSNIFAVRDCSERLLCDLETRLEENLILDDICDILSDHFDKHFEVYIKYCSNQVYQDRTLRRLKTENPGFLSAVQRLEENKQCQGLDMRSFLMLPMQRVTRYPLLLYAILDRITTTDDRYKTATDALTSSNRVVRDCNEGARRMERTEQLLDIDRRLIYKDADLKRIPLVSNSRYLVKKGVLTQLVERRSSNILQSRQKARTLHVFLFSDMIMITKKKLNGTFVCKDYAARRFVDMQPIEPDNPKIPLGATSNLVGRPHLFLCTLMRNARDKQTELLLSADSETDRERWLSAVRPPTSTNPEEKIYAEWDCPQALVVHAYQPSQADELQLNIGDSLNILRKMPDGWLYGERAGDGLGGWFPSSYVQAIINDHTRANNYRQRLRIIQAASGWHGNASPSSTRSGGMPLMDRLRRMSNPKTYFQSGTVGL,not soluble
19,MEKNKLRKVGLTALEWLKQHPEIKQHKESSLYEQLFASQQWQQAQTIGMIRSLPLELSTQPIFERAMQESKQVAVPRTFKGGKMHFYQVFPETVYDTSAFGVEEPPLTAAEITATAIDLLIVPGIVFNRAGYRIGFGGGFYDRYLEHFSGHSCSLVFSEQLHEQWQPEAFDQPIEQLFIQLEHHHHHH,not soluble
20,MSAISPDTKSFAIPTLADEGSSSKPASSLDLPKHESIRFKPIKTLASRIDGSEYYDEASMEKVMEMLEIGRTDEAVAYADTLYSNIIDDEQQDIVTIAEYVKILVVLRQWRRISHIIARGNYHQIHIVFAYYAATALFQRKLYEDVAELSVGHLLPSNGQIGPLPVRTLSQVTGRYVEEERMKYSFANMAELDNSSKKLRMVPALMITIAESFLKLMNRDAAMICINYALSLDNTTLHVERLMAKYNLVEPAMWEKYRKVRNEQLKLHEGNHDPRILMERAQRAYEMGRFRETKKITDELFDLFGPHPECIILRIHCLTMLKDSRSLLELGHQLVSDDPHIPLPWYCVAMYYYSIGANSRARNFISKCTMMDSTFAEGWVAFGHILHYEVEHEQSMSCYYRASKLVDKSSEPFLYTSLQYSTHSQKLSKKFMGEAVARAPNDPLIRHEEACVAYTAKSYAEADILFRTVLYMVTETDEIIPIEEVLKKKIDDFWHPMLNNIGHIARRQGRLNEAIMFYQKAIRMEPKFVDAIASTALCYAVLGNIDKATEFFNKALAIDPFNETIRQCLSKMIQASKESYSVDQQTLPPAYNSETYFGAQEILPYCAIRKPRNDGFVVPSIVSSSQPFMSMLRDRLRRQDQLYAQEPDNDAGNQV,not soluble
